B1: Trinucleotide repeat-containing gene 6C protein (Homo sapiens), Q9HCJ0-1 (parent)
chain: MATGSAQGNFTGHTKKTNGNNGTNGALVQSPSNQSALGAGGANSNGSAARVWGVATGSSSGLAHCSVSGGDGKMDTMIGDGRSQNCWGASNSNAGINLNLNPNANPAAWPVLGHEGTVATGNPSSICSPVSAIGQNMGNQNGNPTGTLGAWGNLLPQESTEPQTSTSQNVSFSAQPQNLNTDGPNNTNPMNSSPNPINAMQTNGLPNWGMAVGMGAIIPPHLQGLPGANGSSVSQVSGGSAEGISNSVWGLSPGNPATGNSNSGFSQGNGDTVNSALSAKQNGSSSAVQKEGSGGNAWDSGPPAGPGILAWGRGSGNNGVGNIHSGAWGHPSRSTSNGVNGEWGKPPNQHSNSDINGKGSTGWESPSVTSQNPTVQPGGEHMNSWAKAASSGTTASEGSSDGSGNHNEGSTGREGTGEGRRRDKGIIDQGHIQLPRNDLDPRVLSNTGWGQTPVKQNTAWEFEESPRSERKNDNGTEAWGCAATQASNSGGKNDGSIMNSTNTSSVSGWVNAPPAAVPANTGWGDSNNKAPSGPGVWGDSISSTAVSTAAAAKSGHAWSGAANQEDKSPTWGEPPKPKSQHWGDGQRSNPAWSAGGGDWADSSSVLGHLGDGKKNGSGWDADSNRSGSGWNDTTRSGNSGWGNSTNTKANPGTNWGETLKPGPQQNWASKPQDNNVSNWGGAASVKQTGTGWIGGPVPVKQKDSSEATGWEEPSPPSIRRKMEIDDGTSAWGDPSNYNNKTVNMWDRNNPVIQSSTTTNTTTTTTTTTSNTTHRVETPPPHQAGTQLNRSPLLGPGRKVSSGWGEMPNVHSKTENSWGEPSSPSTLVDNGTAAWGKPPSSGSGWGDHPAEPPVAFGRAGAPVAASALCKPASKSMQEGWGSGGDEMNLSTSQWEDEEGDVWNNAASQESTSSCSSWGNAPKKGLQKGMKTSGKQDEAWIMSRLIKQLTDMGFPREPAEEALKSNNMNLDQAMSALLEKKVDVDKRGLGVTDHNGMAAKPLGCRPPISKESSVDRPTFLDKDGGLVEEPTPSPFLPSPSLKLPLSHSALPSQALGGIASGLGMQNLNSSRQIPSGNLGMFGNSGAAQARTMQQPPQPPVQPLNSSQPSLRAQVPQFLSPQVQAQLLQFAAKNIGLNPALLTSPINPQHMTMLNQLYQLQLAYQRLQIQQQMLQAQRNVSGSMRQQEQQVARTITNLQQQIQQHQRQLAQALLVKQPPPPPPPPHLSLHPSAGKSAMDSFPSHPQTPGLPDLQTKEQQSSPNTFAPYPLAGLNPNMNVNSMDMTGGLSVKDPSQSQSRLPQWTHPNSMDNLPSAASPLEQNPSKHGAIPGGLSIGPPGKSSIDDSYGRYDLIQNSESPASPPVAVPHSWSRAKSDSDKISNGSSINWPPEFHPGVPWKGLQNIDPENDPDVTPGSVPTGPTINTTIQDVNRYLLKSGGKLSDIKSTWSSGPTSHTQASLSHELWKVPRNSTAPTRPPPGLTNPKPSSTWGASPLGWTSSYSSGSAWSTDTSGRTSSWLVLRNLTPQIDGSTLRTLCLQHGPLITFHLNLTQGNAVVRYSSKEEAAKAQKSLHMCVLGNTTILAEFAGEEEVNRFLAQGQALPPTSSWQSSSASSQPRLSAAGSSHGLVRSDAGHWNAPCLGGKGSSELLWGGVPQYSSSLWGPPSADDSRVIGSPTPLTTLLPGDLLSGESL
B2: Protein Gawky (Drosophila melanogaster (Fruit fly)), Q8SY33 (parent)
chain: MREALFSQDGWGCQHVNQDTNWEVPSSPEPANKDAPGPPMWKPSINNGTDLWESNLRNGGQPAAQQVPKPSWGHTPSSNLGGTWGEDDDGADSSSVWTGGAVSNAGSGAAVGVNQAGVNVGPGGVVSSGGPQWGQGVVGVGLGSTGGNGSSNITGSSGVATGSSGNSSNAGNGWGDPREIRPLGVGGSMDIRNVEHRGGNGSGATSSDPRDIRMIDPRDPIRGDPRGISGRLNGTSEMWGHHPQMSHNQLQGINKMVGQSVATASTSVGTSGSGIGPGGPGPSTVSGNIPTQWGPAQPVSVGVSGPKDMSKQISGWEEPSPPPQRRSIPNYDDGTSLWGQQTRVPAASGHWKDMTDSIGRSSHLMRGQSQTGGIGIAGVGNSNVPVGANPSNPISSVVGPQARIPSVGGVQHKPDGGAMWVHSGNVGGRNNVAAVTTWGDDTHSVNVGAPSSGSVSSNNWVDDKSNSTLAQNSWSDPAPVGVSWGNKQSKPPSNSASSGWSTAAGVVDGVDLGSEWNTHGGIIGKSQQQQKLAGLNVGMVNVINAEIIKQSKQYRILVENGFKKEDVERALVIANMNIEEAADMLRANSSLSMDGWRRHDESLGSYADHNSSTSSGGFAGRYPVNSGQPSMSFPHNNLMNNMGGTAVTGGNNNTNMTALQVQKYLNQGQHGVAVGPQAVGNSSAVSVGFGQNTSNAAVAGAASVNIAANTNNQPSGQQIRMLGQQIQLAIHSGFISSQILTQPLTQTTLNLLNQLLSNIKHLQAAQQSLTRGGNVNPMAVNVAISKYKQQIQNLQNQINAQQAVYVKQQNMQPTSQQQQPQQQQLPSVHLSNSGNDYLRGHDAINNLQSNFSELNINKPSGYQGASNQQSRLNQWKLPVLDKEINSDSTEFSRAPGATKQNLTANTSNINSLGLQNDSTWSTGRSIGDGWPDPSSDNENKDWSVAQPTSAATAYTDLVQEFEPGKPWKGSQIKSIEDDPSITPGSVARSPLSINSTPKDADIFANTGKNSPTDLPPLSLSSSTWSFNPNQNYPSHSWSDNSQQCTATSELWTSPLNKSSSRGPPPGLTANSNKSANSNASTPTTITGGANGWLQPRSGGVQTTNTNWTGGNTTWGSSWLLLKNLTAQIDGPTLRTLCMQHGPLVSFHPYLNQGIALCKYTTREEANKAQMALNNCVLANTTIFAESPSENEVQSIMQHLPQTPSSTSSSGTSGGNVGGVGTSANNANSGSAACLSGNNSGNGNGSASGAGSGNNGNSSCNNSAAGGGSSSNNTITTVANSNLVGSSGSVSNSSGVTANSSTVSVVSCTASGNSINGAGTANSSGSKSSANNLASGQSSASNLTNSTNSTWRQTSQNQALQSQSRPSGREADFDYISLVYSIVDD
B3: Trinucleotide repeat-containing gene 6A protein (Homo sapiens), Q8NDV7 (parent)
chain: MRELEAKATKDVERNLSRDLVQEEEQLMEEKKKKKDDKKKKEAAQKKATEQKIKVPEQIKPSVSQPQPANSNNGTSTATSTNNNAKRATANNQQPQQQQQQQQPQQQQPQQQPQPQPQQQQPQQQPQALPRYPREVPPRFRHQEHKQLLKRGQHFPVIAANLGSAVKVLNSQSESSALTNQQPQNNGEVQNSKNQSDINHSTSGSHYENSQRGPVSSTSDSSTNCKNAVVSDLSEKEAWPSAPGSDPELASECMDADSASSSESERNITIMASGNTGGEKDGLRNSTGLGSQNKFVVGSSSNNVGHGSSTGPWGFSHGAIISTCQVSVDAPESKSESSNNRMNAWGTVSSSSNGGLNPSTLNSASNHGAWPVLENNGLALKGPVGSGSSGINIQCSTIGQMPNNQSINSKVSGGSTHGTWGSLQETCESEVSGTQKVSFSGQPQNITTEMTGPNNTTNFMTSSLPNSGSVQNNELPSSNTGAWRVSTMNHPQMQAPSGMNGTSLSHLSNGESKSGGSYGTTWGAYGSNYSGDKCSGPNGQANGDTVNATLMQPGVNGPMGTNFQVNTNKGGGVWESGAANSQSTSWGSGNGANSGGSRRGWGTPAQNTGTNLPSVEWNKLPSNQHSNDSANGNGKTFTNGWKSTEEEDQGSATSQTNEQSSVWAKTGGTVESDGSTESTGRLEEKGTGESQSRDRRKIDQHTLLQSIVNRTDLDPRVLSNSGWGQTPIKQNTAWDTETSPRGERKTDNGTEAWGSSATQTFNSGACIDKTSPNGNDTSSVSGWGDPKPALRWGDSKGSNCQGGWEDDSAATGMVKSNQWGNCKEEKAAWNDSQKNKQGWGDGQKSSQGWSVSASDNWGETSRNNHWGEANKKSSSGGSDSDRSVSGWNELGKTSSFTWGNNINPNNSSGWDESSKPTPSQGWGDPPKSNQSLGWGDSSKPVSSPDWNKQQDIVGSWGIPPATGKPPGTGWLGGPIPAPAKEEEPTGWEEPSPESIRRKMEIDDGTSAWGDPSKYNYKNVNMWNKNVPNGNSRSDQQAQVHQLLTPASAISNKEASSGSGWGEPWGEPSTPATTVDNGTSAWGKPIDSGPSWGEPIAAASSTSTWGSSSVGPQALSKSGPKSMQDGWCGDDMPLPGNRPTGWEEEEDVEIGMWNSNSSQELNSSLNWPPYTKKMSSKGLSGKKRRRERGMMKGGNKQEEAWINPFVKQFSNISFSRDSPEENVQSNKMDLSGGMLQDKRMEIDKHSLNIGDYNRTVGKGPGSRPQISKESSMERNPYFDKDGIVADESQNMQFMSSQSMKLPPSNSALPNQALGSIAGLGMQNLNSVRQNGNPSMFGVGNTAAQPRGMQQPPAQPLSSSQPNLRAQVPPPLLSPQVPVSLLKYAPNNGGLNPLFGPQQVAMLNQLSQLNQLSQISQLQRLLAQQQRAQSQRSVPSGNRPQQDQQGRPLSVQQQMMQQSRQLDPNLLVKQQTPPSQQQPLHQPAMKSFLDNVMPHTTPELQKGPSPINAFSNFPIGLNSNLNVNMDMNSIKEPQSRLRKWTTVDSISVNTSLDQNSSKHGAISSGFRLEESPFVPYDFMNSSTSPASPPGSIGDGWPRAKSPNGSSSVNWPPEFRPGEPWKGYPNIDPETDPYVTPGSVINNLSINTVREVDHLRDRNSGSSSSLNTTLPSTSAWSSIRASNYNVPLSSTAQSTSARNSDSKLTWSPGSVTNTSLAHELWKVPLPPKNITAPSRPPPGLTGQKPPLSTWDNSPLRIGGGWGNSDARYTPGSSWGESSSGRITNWLVLKNLTPQIDGSTLRTLCMQHGPLITFHLNLPHGNALVRYSSKEEVVKAQKSLHMCVLGNTTILAEFASEEEISRFFAQSQSLTPSPGWQSLGSSQSRLGSLDCSHSFSSRTDLNHWNGAGLSGTNCGDLHGTSLWGTPHYSTSLWGPPSSSDPRGISSPSPINAFLSVDHLGGGGESM

Variants of: B1
Conditions: with pabp_drome pAbp
Target sequence in this assay (P21187 whole entry): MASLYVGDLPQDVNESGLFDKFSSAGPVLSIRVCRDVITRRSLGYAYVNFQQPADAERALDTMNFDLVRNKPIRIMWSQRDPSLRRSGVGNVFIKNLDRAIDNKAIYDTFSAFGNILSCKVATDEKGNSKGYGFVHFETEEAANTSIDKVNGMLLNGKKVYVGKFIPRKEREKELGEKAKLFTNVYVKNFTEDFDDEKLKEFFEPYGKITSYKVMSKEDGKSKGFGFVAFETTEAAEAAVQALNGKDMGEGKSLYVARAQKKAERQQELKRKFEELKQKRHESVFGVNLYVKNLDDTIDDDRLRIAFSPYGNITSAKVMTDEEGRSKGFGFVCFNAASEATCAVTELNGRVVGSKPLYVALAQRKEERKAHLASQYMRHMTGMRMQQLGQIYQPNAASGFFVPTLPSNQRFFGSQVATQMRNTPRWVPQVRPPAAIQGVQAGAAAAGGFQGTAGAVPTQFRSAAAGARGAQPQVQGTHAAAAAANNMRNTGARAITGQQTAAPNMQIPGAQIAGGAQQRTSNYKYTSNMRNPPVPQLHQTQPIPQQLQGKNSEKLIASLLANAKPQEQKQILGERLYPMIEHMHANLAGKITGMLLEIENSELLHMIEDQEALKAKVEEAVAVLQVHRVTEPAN

| effect of a mutation on the interaction | Variant |
| --- | --- |
| disrupting interaction | F1389A |

Variants of: B1
Conditions: with pabp1_human PABPC1, P11940
Target sequence in this assay (P11940 whole entry): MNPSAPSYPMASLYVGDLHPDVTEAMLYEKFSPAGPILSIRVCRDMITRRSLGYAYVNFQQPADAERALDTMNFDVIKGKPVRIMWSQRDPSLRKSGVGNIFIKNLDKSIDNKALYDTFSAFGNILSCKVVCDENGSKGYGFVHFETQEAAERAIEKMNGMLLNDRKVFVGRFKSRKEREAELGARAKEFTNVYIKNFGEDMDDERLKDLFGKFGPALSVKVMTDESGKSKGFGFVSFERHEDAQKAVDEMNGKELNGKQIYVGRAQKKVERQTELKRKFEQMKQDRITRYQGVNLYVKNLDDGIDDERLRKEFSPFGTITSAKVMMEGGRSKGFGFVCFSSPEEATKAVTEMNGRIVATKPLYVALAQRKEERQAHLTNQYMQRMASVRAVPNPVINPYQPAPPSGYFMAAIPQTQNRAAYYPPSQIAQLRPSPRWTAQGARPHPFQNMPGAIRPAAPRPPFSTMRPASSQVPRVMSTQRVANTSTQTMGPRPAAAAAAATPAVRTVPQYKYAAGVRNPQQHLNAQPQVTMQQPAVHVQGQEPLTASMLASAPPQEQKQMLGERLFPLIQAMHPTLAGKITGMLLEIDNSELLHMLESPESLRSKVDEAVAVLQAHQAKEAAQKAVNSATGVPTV

| effect of a mutation on the interaction | Variant |
| --- | --- |
| disrupting interaction | F1389A |

Variants of: B2
Conditions: with pabp_drome pAbp
Target sequence in this assay (P21187 whole entry): as the sequence (P21187 whole entry) above

| effect of a mutation on the interaction | Variant |
| --- | --- |
| disrupting interaction | F961A |

Variants of: B2
Conditions: with pabp_drome pAbp
Remark: another data set of the same source
Target sequence in this assay (P21187 whole entry): as above

| effect of a mutation on the interaction | Variant |
| --- | --- |
| increasing interaction | V958P |
| increasing interaction | Q959P |

Variants of: B2
Conditions: with pabp_drome pAbp
Remark: another data set of the same source
Target sequence in this assay (P21187 whole entry): as above

| effect of a mutation on the interaction | Variant |
| --- | --- |
| increasing interaction | E962Q |

Variants of: B3
Conditions: with pabp_drome pAbp
Target sequence in this assay (P21187 whole entry): as above

| effect of a mutation on the interaction | Variant |
| --- | --- |
| disrupting interaction | F1612A |

Variants of: B3
Conditions: with pabp1_human PABPC1, P11940
Target sequence in this assay (P11940 whole entry): as the sequence (P11940 whole entry) above

| effect of a mutation on the interaction | Variant |
| --- | --- |
| disrupting interaction | F1612A |
